Source: patent US20020104105A1 (MYRIAD GENETICS, published 2002)

Target: T1, ERK3, amino acids 1-316, bait fused to the Gal4 DNA binding domain (Saccharomyces cerevisiae, UniProt P04386 1-147; Q16659 1-316)
T1 construct: range 1-147;range 1-316; Bait cDNA made by PCR from brain cDNA; also called ERK3 protein kinase
Test: yeast two-hybrid
From the text: The new construct was selected directly in the yeast J693 for its ability to drive tryptophane synthesis (genotype of this strain: Mat α, ade2, his3, leu2, trp1, URA3::GAL1-lacZ LYS2::GAL1-HIS3 gal4del gal80del cyhR2). In these yeast cells, the bait is produced as a C-terminal fusion protein with the DNA binding domain of the transcription factor Gal4 (amino acids 1 to 147). A total human brain (person) cDNA library cloned into the yeast expression vector pACT2 was purchased from Clontech (human brain […] cDNA, cat. # HL4004AH), transformed into the yeast strain J692 (genotype of this strain: Mat a, ade2, his3, leu2, trp1, URA3::GAL1-lacZ LYS2::GAL1-HIS3 gal4del ga80del cyhR2), and selected for the ability to drive leucine synthesis. In these yeast cells, each cDNA is expressed as a fusion protein with the transcription activation domain of the transcription factor Gal4 (amino acids 768 to 881) and a 9 amino acid hemagglutinin epitope tag. J693 cells (Mat α type) expressing the bait were then mated with J692 cells ([…]) expressing proteins from the brain library. The resulting diploid yeast cells expressing proteins interacting with the bait protein were selected for the ability to synthesize tryptophan, leucine, histidine, and β-galactosidase. […]

binding result: binds
B1: CDK9, amino acids 160-372, prey clone fused to the Gal4 activation domain (other, Saccharomyces cerevisiae;human, UniProt P04386 768-881, looked up, not shown: small tags and cut ends)
chain: ANFNQSGNIADSSLSFTFTNSSNGPNLITTQTNSQALSQPIASSNVHDNFMNNEITASKIDDGNNSKPLSPGWTDQTAYNAFGITTGMFNTTTMDDVYNYLFDDEDTPPNPKKEDGVLKLADFGLARAFSLAKNSQPNRYTNRVVTLWYRPPELLLGERDYGPPIDLWGAGCIMAEMWTRSPIMQGNTEQHQLALISQLCGSITPEVWPNVDNYELYEKLELVKGQKRKVKDRLKAYVRDPYALDLIDKLLVLDPAQRIDSDDALNHDFFWSDPMPSDLKGMLSTHLTSMFEYLAPPRRKGSQITQQSTNQSRNPATTNQTEFERVF
notes: Clone from the human brain cDNA library; also called PITARLE
